From the DeepSol protein solubility set

Experiment: soluble on expression in E. coli; label from the status in PepcDB or PDB records

| Sequence | soluble on expression in E. coli |
| --- | --- |
| MERISLSFVGDVMLAGSATDTLQRYGYSYPFSATAAELRRSDLVVGNLEAPLTDGGREFRAKRFRFKASPVAAAALKRAGFSVMTLANNHMMDFGADGLSDTIHHLNRNGIAFAGAGPSIADARREASVTVRGQTVAFLAYSLTQPIEFFATEGRPGTAPGYAGHYLADIRRVRSSADHVVVSFHWGQERAALPSPYQIETAHRAIDAGADIVIGHHPHVLQGIEIYRGSPIFYSLGNFAFGSRSPSADRSIIARVTLGEGPPIVEVIPLNVLFREVRFQPAILTGRKAADVVDRLNRLSAPFSTVITSTAGSHLVAPAEANARLARRQLEHHHHHH | not soluble |
| MRLCSVALLLFTVAYVKSAIDINVPSTLYIKEGDTGTIGLPVSANYRREVHNPKGTMDEQLYRVCNGKNKTTCGFWEDVKTKKKVKSGVTTYNKNKKALVIKKMLVSDFGNYMTGNKKKSRYVQQLVSLGK | not soluble |
| MGSDKIHHHHHHMKVSADIGALVERRKQGYSLEAPFYQSEEIFALDMEAIFRKHWIQVAVEPDVPEPGDYITVELGHDSILVVRDDDMQVRAFHNVCRHRGARLCNEDKGTVGNIVCPYHSWTYNLTGDLMFAEHMGEKFDRCKHSLKSVHVQNLAGLIFVCLADEPPADFAAMRAAMEPYLLPHDLPNTKIAAQVDIIEEGNWKLTMENNRECYHCVANHPELTISLYEYGFGYQQSPANAEGMEAFEKTCIARAAQWEALNLPSAEIERLLERTGFRTQRLPLDRSGESQTLDAKVASKKLLGKFEQADLGGLSFWTQPNSWHHFMSDHIVTFSVIPLSAGKTLVRTKWLVHKDAQEGVDYDVANLTAVWNATNDQDRVLVEYSQRGSASSAYEPGPYSPFTEGLVEKFSAWYIRRLAEHVGA | not soluble |
| MSVKISGKDYAGMYGPTKGDRVRLADTDLIIEIEEDYTVYGDECKFGGGKSIRDGMGQSPSAARDDKVLDLVITNAIIFDTWGIVKGDIGIKDGKIAGIGKAGNPKVMSGVSEDLIIGASTEVITGEGLIVTPGGIDTHIHFICPQQIETALFSGITTMIGGGTGPADGTNATTCTPGAFNIRKMLEAAEDFPVNLGFLGKGNASFETPLIEQIEAGAIGLKLHEDWGTTPKAIDTCLKVADLFDVQVAIHTDTLNEAGFVENTIAAIAGRTIHTYHTEGAGGGHAPDIIKIASRMNVLPSSTNPTMPFTVNTLDEHLDMLMVCHHLDSKVKEDVAFADSRIRPETIAAEDILHDMGVFSMMSSDSQAMGRVGEVIIRTWQTAHKMKLQRGALPGEKSGCDNIRAKRYLAKYTINPAITHGISQYVGSLEKGKIADLVLWKPAMFGVKPEMIIKGGFIIAGRMGDANASIPTPQPVIYKNMFGAFGKAKYGTCVTFVSKASLENGVVEKMGLQRKVLPVQGCRNISKKYMVHNNATPEIEVDPETYEVKVDGEIITCEPLKVLPMAQRYFLF | not soluble |
| DIQFSAGLFFQYNLSENFSLRIDPTFDRKGYQYKDITFTDNSGNILGTGKLYGHLDYITIPVLFKASVGNKVKYFVNAGPSIGLLLSETFIYDNPYGNGNQKTHNTNQYKKADAGITAGLGIAIPLGNAIALSFEVRNNVGLTNINKNSNANSAIHANTTSMLVGVAYKF | not soluble |
| MGHHHHHHSHMARKLKGKIGSKGLKGALLRHKAKVKLVRNIESKQKHELRKKNSSANNKTVKRNQEFQKLNQGKVMPFEKDETLMLCGEGDFSFARSIVEQNYIESDNLIITSYDNSVNELKLKYPHTFEENYQYLKDLNIPIFFQIDVTKLVKSFKISKNNTWFKIINRLSDHRWGNKPLQNIVFNFPHNGKGIKDQERNIREHQDLIFNFFQNSLQLFNLINTKIQNDTLRYTQGYDLNEDTPQAKKLTAEGYGNIILSLFDGEPYDSWQIKLLAKKNGLTLSRSSKFQWENFP | soluble |
| MKGVSRHVFVRIVQAIIMKHLVYCFKLDNDEFNLKNKYKKYKPCVTRVYDDLNTIYRYISNNKIINLEHHHHHH | not soluble |
| MGSDKIHHHHHHMNYRERIAQSITPLQGNLFRVVESQEDIATARIVDSMQEQNRLEELLESNKPPVPGTARKRHYLLTTPFRYPPLKYGSRFGRSFEPSLFYGAMSIPTALAETAFYRFVFMSHLKVPFKRPLTTLHTVFSARFRTERGVRLQSEHWQDLHHTLADPVSYRESQAVGTDMRSLQVGAFQFLSARALQAGLYALPYHPDNGVEGVNVALFNASVFRDAAPRSYQKLIAVTSPSQVSMSLSEPDGSKKVYEFSLDQFLVEGELPQPAP | not soluble |
| MKLNLKNPLIFFDLETTGVDLVRDRIVEISILKVMPDGSEECKTRRINPERPIPPESTAIHGIRDEDVKDCPPFRSVAKSLAQWIEGCDLAGFNSTRFDVPMLVEEFLRAGVDIDLRHRKLIDVQTIFHKMEPRTLEAATRFYCNRTLENAHSAEADTRATYDVFKAQLDRYEGTLENDMAFLADFSRQSRNVDFAGRLVYDDNDNVIINFGKYRGRKALDVLRTDSGYYGWIMDADFTLNTKQEFTRLRMSLNNPETK | soluble |
| MSLTLKLGFKPFSFHLLRSLRTSQGIIKKKEGWLIKLENKTGRLGWGEIAPLNLSELNICGKILEKLGNSPSRQTLEEGIPNWPGSLAFAIGAALAEIDYLIGNDSKNKWLSVTSSALLLPNEESILLNTLQSVLDKHKETQKELTFKWKIRNTSSDSDLNLLKKILFLLPENTRLRIDANGGLNRIQAHEWAQALQNEARIEWLEQPLAVDDIEGMNELAQMLPIALDESLIYNPSLRKSWTGWQIRRPLIEGDPRILLKEFKEKNSYISISTSFETGIGKRWIEHFAALQLRGLTPTQPGLAPGWCPKGPLFCQNPQLVWEAAEGHHHHHH | soluble |
| AAPSFDCGKPQVEPKKCPGRVVGGCVAHPHSWPWQVSLRTRFGMHFCGGTLISPEWVLTAAHCLEKSPRPSSYKVILGAHQEVNLEPHVQEIEVSRLFLEPTRKDIALLKLSSPAVITDKVIPACLPSPNYVVADRTECFITGWGETQGTFGAGLLKEAQLPVIENKVCNRYEFLNGRVQSTELCAGHLAGGTDSCQGDSGGPLVCFEKDKYILQGVTSWGLGCARPNKPGVYVRVSRFVTWIEGVMRNN | soluble |
| PIDLITVGSLIELQDSQNPFQYWIVSVIENVGGRLRLRYVGLEDTESYDQWLFYLDYRLRPVGWCQENKYRMDPPSEIYPLKMASEWKCTLEKSLIDAAKFPLPMEVFKDHADL | soluble |
| MVDREWVLKIAKLARLELKEEEIEVFQKQLSDILDFIDQLKELDTENVEPYIQEFEETPMREDEPHPSLDREKALMNAPERKDGFFVVPRVVEV | soluble |
| MGSDKIHHHHHHMLQLPDSPPRMKTLVSVDESYKLCRHLTAKYAKTFYLGTLLMSPVKRQSIWSIYAWCRRTDELVDGPASAITTPETLDLWEQQLESIFAGRPLENYDVALVDTLQRFPMDIQPFRDMIAGQRMDLYRSRYETFEDLYLYCYRVAGTVGLMSTEVMGVDSTLYTAPWHQNKQPYLPTEEAIALGIANQLTNILRDVGEDAKRGRIYIPLEDLEKFNYTEQDFFKGVVDDRWRALMRFQIERARQFYTTSNQGITYLASDARWPVWAASMLYGQILEVIERNDYDVFSRRAFVPQWKKLRTLPLAWMRSQVL | not soluble |
| FLDKPTLLSPEELKAASRGNGEYALYYEGRNGWWQYDERTSRELEDAFSKGKRTSEMLIAGFLYVADLENMGQYRRNEHGRRRKIKRDIIDIPKKGV | soluble |
| MYSLIRHGRSLVELQKWRHLRVLVQKASPLSNSFSSASAARLSPRVGRKGKSFTVSYLVDSLGLPKKLAESVSRKVSFEDKDNPDSVLNLLRSHGFTDSQISTIVTDYPQLLVADAEKSLAPKLQFLQSRGASSSELTEIVSTVPKILGKRGHKTISVFYDFIKETLLDKSSKSEKSCQPFPQGNLENKIRNLSVLRELGMPHKLLFPLLISCDVPVFGKEKFEESLKKVVEMGFDPSTSKFVEALCVVQRLSDKNIEDKVNAYKRLGFDVEYVWTVFKRWPNFLTHSEKKILNTIETFLGLGFSRDEFSVLIKRFPQGIGLSAEMVKKKTEFLVKKMNWPLKALVSNPAVLGYSLEKRTVPRGNVVQALISKGLIGSELPSISRVFVCTDQVFLNRYVKRHEDKQLETELMAIYRAS | soluble |
| MGSDKIHHHHHHMHMKLDDITYMNPWWEGKEDYHVKQWEKQKVHWEPKWIREISLKPFSLNFVLGPRQVGKTTGIKLLIQKILEENPPESVLYLNLEILPTYRELLDIIREFQELKKEEGIKTGYIFLDEASSLEGWWRGVKPLIDSGLLENDVITVTGSSSLRVRRDIELFPGRRGGGKTLEVMPLSFPEYARVMGLKKHKLEGSKVIKLFEKYIQTGGFPGSINGFPMEDLLGAYIGEFVRFGKSLEIAKEIFSALIRSAPSATSFRALAEMTSGYSYKVVQDYIEFFRDLYILGMAYLKQGNQVMYRREKKFFFRDPLLAKLFSLWSGTEIGKDALYEWIVQEHVFRKFGEIHYFRNSYEIDIIASDMKIEVKAGKAHRKYPRGVKVLEKEDVPFFLIELYNEDC | not soluble |
| MSLNSPIQAVIFDWAGTIVDFGSFAPTSIFVEAFKQGFDFEISLAEAREPMGLGKWQHIEAVGKLPTVAQRWQKQFGRPMQASDIDAIYAAFMPLQIAKVADHAAPIPHSLEVVEQIRSRGIKIGSCSGYPRQVMDVLIAAAADYGYRPDYVVATDDLAQGGRPAPFMALKNVIELGVTDVRACVKVDDALPGIEEGHNAGMWTVGLLLSGNEAGLTLEEYQHADDQTLQAARERAQAKLQQAKPHYLIDTVADLPAVLAQIEQRLLAGEREGHHHHHH | soluble |
| MFMREIELRGHIIDSLILPKVFDKILDMGGDYKVLEFEIGKRKTDPSYAKILVIGRDERHVDEILNELRDLGAEIPEIEEVELQPAEKDMVLPEGFYSTTNHKTFIRFKGKWIEVENQKMDGAIVVYPDEMRAEVKTIRNIKKGDLVVVGHKGVRVIPPEKPREGGGLFEFMKSDASSEKPKETIIRRIAKEMYEIREKYRKTGKGGIVVVGGPAIIHTGAGWALAKLIRMGYVQALFAGNALATHDIESVLYGTSLGVDLKTGKSVPGGHSHHLRAINTIMRAGSIKDAVEQGILKEGVMYECIKNNIPYVLAGSIRDDGPLPDVITDVVKAQEKMRELLKGKDMVLMLSTMLHSIATGNLLPSWVKTICVDINPAVVTKLMDRGTSQALGIVTDVGVFLPMLVEELEKLEKEKEKSEKREELEHHHHHH | soluble |
| STVTQKNLFPYGDYLNSSQLHMEPDEVDTLREGEDPADRMHPYLAIYDLQPLKAHPLVFAPGVPVIAQVVGTERYTSGSKVGTCTLYSVRLTHGDFTWTTKKKFRHFQELHRDLQRHKVLMSLLPLARFAVTHSPAREAAAEDIPSLPRGGSEGSARHTASKQKYLENYLNRLLTMSFYRNYHAMTEFLEVSQLSFIPDLGSKGLEGVIRKRSGGHRVPGFTFCGRDQVCYRWSKRWLVVKDSFLLYMRPETGAISFVQLFDPGFEVQVGKRSTETRYGVRIDTSHRSLILKCSSYRQARWWGQEITELAQGSGRDFLQLHQHDSYAPPRPGTLARW | soluble |
